Measurements published in patent US20070161060A1 (published 2007).

Key:
[1] = target: endogenous PIPKIγ of HEK293 cells (UniProt O60331); experiment: co-IP from HEK293 cells expressing the Myc-tagged tail
[2] = target: AP2 adaptor protein complex (endogenous); experiment: cell-based or functional assay
[3] = target: AP2 adaptor protein complex (endogenous)
β-catenin = target: T1, β-catenin (UniProt P35222 2-781); experiment: immunoprecipitation from HEK293 cells
T1 sequence (looked up): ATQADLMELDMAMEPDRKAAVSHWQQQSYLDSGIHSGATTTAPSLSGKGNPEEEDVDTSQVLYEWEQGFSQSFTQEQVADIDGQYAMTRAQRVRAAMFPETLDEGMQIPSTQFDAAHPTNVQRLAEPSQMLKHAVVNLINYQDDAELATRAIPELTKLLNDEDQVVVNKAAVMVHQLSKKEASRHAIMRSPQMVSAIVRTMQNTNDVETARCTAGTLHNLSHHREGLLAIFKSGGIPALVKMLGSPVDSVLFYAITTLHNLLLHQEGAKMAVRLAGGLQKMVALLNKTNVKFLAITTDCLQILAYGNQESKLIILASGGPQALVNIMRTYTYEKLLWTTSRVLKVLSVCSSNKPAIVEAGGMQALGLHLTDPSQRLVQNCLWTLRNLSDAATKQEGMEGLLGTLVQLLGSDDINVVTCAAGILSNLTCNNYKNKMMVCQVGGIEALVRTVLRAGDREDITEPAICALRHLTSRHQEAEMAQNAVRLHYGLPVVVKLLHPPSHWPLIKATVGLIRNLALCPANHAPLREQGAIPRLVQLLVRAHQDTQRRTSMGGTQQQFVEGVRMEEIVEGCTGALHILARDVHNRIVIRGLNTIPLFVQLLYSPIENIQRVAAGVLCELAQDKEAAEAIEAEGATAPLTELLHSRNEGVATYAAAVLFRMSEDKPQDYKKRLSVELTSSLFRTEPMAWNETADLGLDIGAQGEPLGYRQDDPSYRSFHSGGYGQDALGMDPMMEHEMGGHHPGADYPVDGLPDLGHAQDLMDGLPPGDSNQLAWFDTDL

Sequence of endogenous PIPKIγ of HEK293 cells (O60331 whole entry): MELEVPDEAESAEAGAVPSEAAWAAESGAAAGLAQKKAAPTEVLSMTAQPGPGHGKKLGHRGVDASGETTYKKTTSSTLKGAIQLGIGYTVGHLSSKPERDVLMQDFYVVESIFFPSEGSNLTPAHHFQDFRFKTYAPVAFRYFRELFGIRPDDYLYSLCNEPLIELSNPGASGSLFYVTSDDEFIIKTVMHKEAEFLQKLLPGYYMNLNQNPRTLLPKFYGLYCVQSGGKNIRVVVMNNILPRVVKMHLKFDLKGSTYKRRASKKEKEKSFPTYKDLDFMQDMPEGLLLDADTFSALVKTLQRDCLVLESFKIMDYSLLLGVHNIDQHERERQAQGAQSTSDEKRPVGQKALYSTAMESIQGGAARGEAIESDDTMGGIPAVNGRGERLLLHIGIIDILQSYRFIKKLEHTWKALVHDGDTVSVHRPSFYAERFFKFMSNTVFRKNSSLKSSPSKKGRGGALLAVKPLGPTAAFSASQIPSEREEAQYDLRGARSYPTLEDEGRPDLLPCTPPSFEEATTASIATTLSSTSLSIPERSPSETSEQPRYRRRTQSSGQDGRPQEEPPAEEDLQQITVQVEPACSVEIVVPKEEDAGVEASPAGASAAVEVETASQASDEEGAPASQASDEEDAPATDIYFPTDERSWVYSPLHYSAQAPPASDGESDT

c-Myc-tagged dimeric E-cadherin C-terminus (Myc-HR-ECDT) (from UniProt P12830 731-882)
fold affinity against the monomer [1]: 10 fold

HA-tagged wild-type PIPKIγ661 (from UniProt O70161 1-661) (enzyme)
internalized ALEXA Fluor 647 transferrin, mean fluorescence intensity relative to nonexpressing cells (flow cytometry, MDCK) [2]: > 40 % increase

B1: HA-tagged PIPKIγ635 (protein)
chain: MELEVPDEAESAEAGAVTAEAAWSAESGAAAGMTQKKAGLAEAPLVTGQPGPGHGKKLGHRGVDASGETTYKKTTSSTLKGAIQLGIGYTVGNLSSKPERDVLMQDFYVVESIFFPSEGSNLTPAHHFQDFRFKTYAPVAFRYFRELFGIRPDDYLYSLCNEPLIELSNPGASGSVFYVTSDDEFIIKTVMHKEAEFLQKLLPGYYMNLNQNPRTLLPKFYGLYCVQSGGKNIRVVVMNNVLPRVVKMHLKFDLKGSTYKRRASKKEKEKSLPTYKDLDFMQDMPEGLLLDSDTFGALVKTLQRDCLVLESFKIMDYSLLLGVHNIDQQERERQAEGAQSKADEKRPVAQKALYSTAMESIQGGAARGEAIETDDTMGGIPAVNGRGERLLLHIGIIDILQSYRFIKKLEHTWKALVHDGDTVSVHRPSFYAERFFKFMSSTVFRKSSSLKSSPSKKGRGALLAVKPLGPTAAFSASQIPSEREDVQYDLRGARSYPTLEDEGRPDLLPCTPPSFEEATTASIATTLSSTSLSIPERSPSDTSEQPRYRRRTQSSGQDGRPQEEPHAEDLQKITVQVEPVCGVGVVPKEEGAGVEVPPCGASAAASVEIDAASQASEPASQASDEEDAPSTDIYF
transferrin endocytosis (MDCK stable line) [3]: had no appreciable effect on transferrin endocytosis

B2: E-cadherin Val832Met (receptor, UniProt P12830 155-882, looked up)
chain: DWVIPPISCPENEKGPFPKNLVQIKSNKDKEGKVFYSITGQGADTPPVGVFIIERETGWLKVTEPLDRERIATYTLFSHAVSSNGNAVEDPMEILITVTDQNDNKPEFTQEVFKGSVMEGALPGTSVMEVTATDADDDVNTYNAAIAYTILSQDPELPDKNMFTINRNTGVISVVTTGLDRESFPTYTLVVQAADLQGEGLSTTATAVITVTDTNDNPPIFNPTTYKGQVPENEANVVITTLKVTDADAPNTPAWEAVYTILNDDGGQFVVTTNPVNNDGILKTAKGLDFEAKQQYILHVAVTNVVPFEVSLTTSTATVTVDVLDVNEAPIFVPPEKRVEVSEDFGVGQEITSYTAQEPDTFMEQKITYRIWRDTANWLEINPDTGAISTRAELDREDFEHVKNSTYTALIIATDNGSPVATGTGTLLLILSDVNDNAPIPEPRTIFFCERNPKPQVINIIDADLPPNTSPFTAELTHGASANWTIQYNDPTQESIILKPKMALEVGDYKINLKLMDNQNKDQVTTLEVSVCDCEGAAGVCRKAQPVEAGLQIPAILGILGGILALLILILLLLLFLRRRAVVKEPLLPPEDDTRDNVYYYDEEGGGEEDQDFDLSQLHRGLDARPEVTRNDVAPTLMSVPRYLPRPANPDEIGNFIDENLKAADTDPTAPPYDSLLMFDYEGSGSEAASLSSLNSSESDKDQDYDYLNEWGNRFKKLADMYGGGEDD
notes: whole, on cells; Expressed in HEK293 cells and co-immunoprecipitated from lysates; also called Val832Met E-cadherin mutant
binding result (β-catenin): binds
